Laboratory results as given in patent publication US9011842.

System: T1, 33-mer peptide fragment of α-gliadin, LQLQPFPQPQLPYPQPQLPYPQPQLPYPQPQPF (SEQ ID NO:1)
T1 sequence: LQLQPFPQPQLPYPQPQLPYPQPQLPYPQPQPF

In the case of Aorsin A, the “degradation of the 33-mer peptide (ELISA of intact 33-mer), 240 min, pH 4.0” value was “Incubation with either Aorsin A or B for about 240 minutes resulted in complete degradation of the 33-mer peptide” and the “hydrolysis of the 33-mer peptide (HPLC-MS), citrate buffer pH 4.0” value was “When incubated with the 33-mer peptide in acidic conditions (pH≈4.0), Aorsin A hydrolyzed the 33-mer”.

Aorsin B was tested, and the “degradation of the 33-mer peptide (ELISA of intact 33-mer), 240 min, pH 4.0” value was “Incubation with either Aorsin A or B for about 240 minutes resulted in complete degradation of the 33-mer peptide” and the “hydrolysis of the 33-mer peptide (HPLC-MS), citrate buffer pH 4.0” value was “when incubated with the 33-mer peptide in acidic conditions (pH≈4.0), Aorsin B hydrolyzed the 33-mer”.

For Aspergillus niger prolyl endopeptidase, the “hydrolysis of the 33-mer peptide (HPLC-MS and ELISA), pH 5.0” value was “CPY, MX-PEP, and AN-PEP hydrolyze the 33-mer peptide. AN-PEP appears to have the strongest activity against the 33-mer peptide, followed by CPY and then MX-PEP”.

In the case of Myxococcus xanthus prolyl endopeptidase, the “hydrolysis of the 33-mer peptide (HPLC-MS and ELISA), SIF pH 6.8” value was “CPY, MX-PEP, and AN-PEP hydrolyze the 33-mer peptide. AN-PEP appears to have the strongest activity against the 33-mer peptide, followed by CPY and then MX-PEP” and the “hydrolysis of the 33-mer peptide (HPLC-MS), 4 hours, buffer pH 4.0 to 7.0” value was “MX-PEP did not hydrolyze the 33-mer peptide at an acidic pH”.

For Neutral protease I, the “degradation of the 33-mer peptide (ELISA of intact 33-mer), 0.1 mg/ml enzyme, SIF pH 6.8” value was “NP I and NP II each exhibited a limited ability to degrade the 33-mer peptide” and the “percent of the 33-mer peptide degraded (ELISA), 60 min, SIF pH 6.8” value was “NP I alone degraded about 40% of the 33-mer peptide”.

With chymotrypsin the “digestion of the 33-mer peptide (HPLC-MS), in vitro gastrointestinal model, digestive enzymes only” value (“digestion of the 33-mer peptide” for short) was “The digestive enzymes only (pepsin, trypsin, and chymotrypsin) failed to digest the 33-mer peptide”.

pepsin was tested, and the “digestion of the 33-mer peptide” value was “The digestive enzymes only (pepsin, trypsin, and chymotrypsin) failed to digest the 33-mer peptide” and the “hydrolysis of the 33-mer peptide (HPLC-MS), 15 hours, SGF pH 2.0” value was “At gastric conditions (pH≈2.0), pepsin did not hydrolyze most of the 33-mer peptide”.

For trypsin, the “digestion of the 33-mer peptide” value was “The digestive enzymes only (pepsin, trypsin, and chymotrypsin) failed to digest the 33-mer peptide”.
